B1: Zinc finger protein Aiolos (Homo sapiens), Q9UKT9 (parent)
chain: MEDIQTNAELKSTQEQSVPAESAAVLNDYSLTKSHEMENVDSGEGPANEDEDIGDDSMKVKDEYSERDENVLKSEPMGNAEEPEIPYSYSREYNEYENIKLERHVVSFDSSRPTSGKMNCDVCGLSCISFNVLMVHKRSHTGERPFQCNQCGASFTQKGNLLRHIKLHTGEKPFKCHLCNYACQRRDALTGHLRTHSVEKPYKCEFCGRSYKQRSSLEEHKERCRTFLQSTDPGDTASAEARHIKAEMGSERALVLDRLASNVAKRKSSMPQKFIGEKRHCFDVNYNSSYMYEKESELIQTRMMDQAINNAISYLGAEALRPLVQTPPAPTSEMVPVISSMYPIALTRAEMSNGAPQELEKKSIHLPEKSVPSERGLSPNNSGHDSTDTDSNHEERQNHIYQQNHMVLSRARNGMPLLKEVPRSYELLKPPPICPRDSVKVINKEGEVMDVYRCDHCRVLFLDYVMFTIHMGCHGFRDPFECNMCGYRSHDRYEFSSHIARGEHRALLK
B2: DNA-binding protein Ikaros (Homo sapiens), Q13422-1 (parent)
chain: MDADEGQDMSQVSGKESPPVSDTPDEGDEPMPIPEDLSTTSGGQQSSKSDRVVASNVKVETQSDEENGRACEMNGEECAEDLRMLDASGEKMNGSHRDQGSSALSGVGGIRLPNGKLKCDICGIICIGPNVLMVHKRSHTGERPFQCNQCGASFTQKGNLLRHIKLHSGEKPFKCHLCNYACRRRDALTGHLRTHSVGKPHKCGYCGRSYKQRSSLEEHKERCHNYLESMGLPGTLYPVIKEETNHSEMAEDLCKIGSERSLVLDRLASNVAKRKSSMPQKFLGDKGLSDTPYDSSASYEKENEMMKSHVMDQAINNAINYLGAESLRPLVQTPPGGSEVVPVISPMYQLHKPLAEGTPRSNHSAQDSAVENLLLLSKAKLVPSEREASPSNSCQDSTDTESNNEEQRSGLIYLTNHIAPHARNGLSLKEEHRAYDLLRAASENSQDALRVVSTSGEQMKVYKCEHCRVLFLDHVMYTIHMGCHGFRDPFECNMCGYHSQDRYEFSSHITRGEHRFHMS

Variants of: B1
Settings: with crbn_human CRBN

Row | effect of a mutation on the interaction | Variant
1 | decreasing interaction strength | Q147H

Variants of: B2
Settings: with crbn_human CRBN

Row | effect of a mutation on the interaction | Variant
2 | decreasing interaction strength | Q146H

Source: IntAct's records for PubMed 24292623
